Target: Tau RD (MTBD) P301S fused to CFP or YFP, in HEK293 Tau RD P301S FRET Biosensor cells (UniProt P10636)
Assay: cell-based or functional assay

Sequence of Tau RD (MTBD) P301S fused to CFP or YFP, in HEK293 Tau RD P301S FRET Biosensor cells (P10636 561-689 P618S): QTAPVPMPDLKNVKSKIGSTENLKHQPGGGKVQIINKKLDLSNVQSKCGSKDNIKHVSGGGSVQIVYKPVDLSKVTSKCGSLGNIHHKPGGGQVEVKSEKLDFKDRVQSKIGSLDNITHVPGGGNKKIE

| Binder | mCherry-gated FRET positive cells after MTBD seeds | seeding inhibition against mCherry-VHH F8-2 | seeding inhibition |
| --- | --- | --- | --- |
| mCherry-VHH E4-1 (VHH, not shown: large carriers) VHH: EVQLQASGGGFVQPGGSLRLSCAASGATSTFDGMGWFRQAPGKEREFVSAISYEQGSYTYYADSVKGRFTISRDNSKNTVYLQMNSLRAEDTATYYCAPAYEGDLYAFDSYWGQGTQVTVSS | 15.2% | 7.8% |  |
| mCherry-VHH Mut3 (VHH, not shown: large carriers) VHH: EVQLQASGGVFVQSGGSLRLSCAASGATSTFDGMGWFRQAPGKEKEFVSAISYEQGSYTYYADSVKGRFTISRDNSKNMVYLQMNSLRAEDTATYYCAPAYEGDLYAFDSYGGQGTQVTVSS | 8.2% |  | 50% |
| mCherry-VHH Mut14 (VHH, not shown: large carriers) VHH: EVQLQASGGVFVQSGGSLRLSCAASGATSIFDGMGWFRQAPGKEREFVSAISYGQGSYTYYADSVKGRFTISRDNSKNMVYLQMNSLRAEDTATYYCAPAYEGDLYAFDSYGEQGTQVTVSS | 12.7% |  | 23% |
| mCherry-VHH Mut5 (VHH, not shown: large carriers) VHH: EVQLQASGGVFVQSGGSLRLSCAASGATSTFDGMGWFRQAPGKEREFVSAISYEQGSYTYYADSVKGRFTISRDNSKNMVYLQMNSLRAEDTASYYCAPAYEGDLYAFDSYGGQGTQVTVSS | 12.1% |  | 27% |
| mCherry-VHH Mut1 (VHH, not shown: large carriers) VHH: EVQLQASGGVFVQSGGSLRLSCAASGATSTFDGMGWFRQAPGKEREFVSAISYEQGSYTYYADSVKGRFTISRDNSKNMVYLQMNSLRAEDTATYYCAPAYEGDLYAFDSYGEQGTQVTVSS | 8.2% |  | 50% |
| mCherry-VHH Mut20 (VHH, not shown: large carriers) VHH: EVQLQASGGVFVQSGGSLRLSCAASGATSTFDGMGWFRQAPGKEKEFVSAISYEQGSYTYYADSVKGRFTISRDNSKNMVYLQMNSLRAEDTATYYCAPAYEGDLYAFDSYGEQGTQVTVSS | 11.2% |  | 32% |
| mCherry-VHH Z70 (VHH, not shown: large carriers) VHH: EVQLQASGGVFVQSGGSLRLSCAASGATSTFDGMGWFRQAPGKEREFVSAISYEQGSYTYYADSVKGRFTISRDNSKNMVYLQMNSLRAEDTATYYCAPAYEGDLYAFDSYGGQGTQVTVSS | 9.9% | 40% |  |
| mCherry-VHH Mut12 (VHH, not shown: large carriers) VHH: AEVQLQASGGVFVQSGGSLRLCCAASGATSTFDGMGWFRQAPGKEREFVSAISYEQGSYTYYADSVKGRFTISRDNSKNMVYLQMNSLRAEDTATYYCAPAYEGDLYAFDSYGEQGTQVTVSS | 8.5% |  | 48% |
